This series in a line: yeast display, Sf9 membrane polyspecificity reagent, FACS + sequencing; frameworks hold sequencing errors. The gist of the method:
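Using colony PCR, genes from sorted yeast display clones were amplified, then sequenced on MiSeq at 2 × 250 and filtered by CDR length. The clones had been stained with 10% biotinylated, detergent-solubilized Sf9 membrane reagent for 1 hour at 4 °C and sorted by FACS into low and high (top ~1%) gates on anti-HA and streptavidin fluorescence. Polyreactivity labels come from the gate of origin.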
“QDHLVESGGGLVHAGGRLRLSCAASVRIFTAYAMGWYRQAPGTERELVPAISSGDSTYSADSVKGRFTISRDNAKNSVYLQMNSLKPVVTAVYSCATGVYPDFEYVSWGQGTQVTGSS”: the “polyreactivity (PSR sort gate)” value is listed as “low polyreactivity”.

Take “QVQLVESGGGLVQAGGSLRLSCAASGNTFQYYAMGWYRQAPGKEREFVAAISRRGGSTYYADSVKGRFTISRDNAKNTVYLQMNSLKPEDTAVYYCNKVIFLSQSSYSFHYAYDYWGQGTQVTVSS”: the “polyreactivity (PSR sort gate)” value is recorded as “high polyreactivity”. “QVQLVESGGGLVQAGGSLRLSCAASGRTFNFNTMGWYRQAPGKEREFVAAITFRGVRTYYADSVKGRFTISRDNAKNTVYLQMNSLKPEDTAVYYCAADAPRSYRFGYWGQGTQVTVSS”: the “polyreactivity (PSR sort gate)” value is on record as “high polyreactivity”.

With “QVHLVESGGGLVQAGGSLRLSCAASGIIVYPYAMGWYRQAPGKESELVATISYRGGSTYYADSVKGRFTISRDNAKNTVYLQMNSLKPEETAVYYCAAERGYPKFGYCGQGTQVTVSS”, the “polyreactivity (PSR sort gate)” value was “low polyreactivity”. The result for “QVQLVESGGGLVQAGGSLRLSCAASGGIFVDNAMGWYRQAPGKERELVATITSTGSTNYADSVKGRFTISRDNAKNTVYLQMNSLKPEDTAVYYCNADGILQDYDYWGQGTQVTVSS” reads “low polyreactivity”. As for “QVQLVESGGGLVQAGGSLRLSCAASGRIFRGYVMGWYRQAPGKERELVAVITSGGRTYYADSVKGRFTISRDNAKNTVYLQMNSHKPEDTAVYYCATYPRYKPYYYWGQGTQVTVSS”, the “polyreactivity (PSR sort gate)” value was “low polyreactivity”. “QVQLVESGGALVQAGGSLRLSCAASGLIFYKYAMGWYRQAPGKERELVASISTGGGSTYYADSVKGRFTISRDNAKNTVYLQMNSLKPEDTAVYYCAARWWRRFRGSHSLYDYWGQGTLVTVSS”: the “polyreactivity (PSR sort gate)” value was “high polyreactivity”. In the case of “QVQLVESGGGLFQEGGSLRVSCAASGRIFIANAMGWYRQAPGKERELVAAISFSGGSTYYADSVKGRFTISRDNAKSTVYLQLNSLKPEDTAVYFCIKVGIRYYYGYDYWGHGTQVTVSS”, the “polyreactivity (PSR sort gate)” value is recorded as “high polyreactivity”. For “QVQLVESGGGLVQAGGSLRLSCAASGRIFAYYAMGWYRQAPGTERELVAAITRRSGGITYYADSVKGRFTISRDNAKNTVYLQMNSLKPEDTAVYYCAARYRLSGKYRFTYDYWGQGTQVTVSS” the value was “high polyreactivity”; for “QVQLVESGGGLVQAGGSLRLSCAASGRTFYGYAMGWYRQAPGKERELVASISYSGGNTYYADSVKGRFTISRDIAKNTVYLQMNSLKPEDTAVYYCAAEVVFFGWHYDYWGQGTQVTVSS”, “high polyreactivity”; for “QVQLVESGGGLVQAGGSLRLSCAASGSIFYPYAMGWYRQAPGKERELVAGITYRAGSTYYADSVKGRFTISRDNAKNTVYLQMNSLKPEDTAVYYCAASQSYAFDWGQGTQVTVSS”, “high polyreactivity”. “QVQLVESGGGLVQAGGSLRLSCAASGRIFYPYAMGWYRQAPGKERELVAAIRGGDSTNYADSVKGRFTISRDNAKNTVYLQMNSLKPEDTAVYYCAAVLRYVVRPYSYWSGGYDYWGQGTQVTVSS”: the “polyreactivity (PSR sort gate)” value was “high polyreactivity”. As to “QFQLVESGGGLVQAGGSLRLSCAASGFIFPLYTMGWYRQAPGKETELVAAIDGGGTTYADSVKGRFTISRDNAKNTVYLQMNSLKPEDTAVYYCAADWYYQYSIYRYGYWGQGTQVTVSS”, the “polyreactivity (PSR sort gate)” value is “low polyreactivity”.

With “QVQLVESGGGLVQAGGSLRLSCAASGSIFVYYAMGWYRQAPGKERELVARITRGGRTYYADSVKGRFTISRDNAKNTVYLQMNSLKPEDTAVYYCAADYRVQLRKEYDYWGQGTQVTVSS”, the “polyreactivity (PSR sort gate)” value is “high polyreactivity”. The result for “QVQLVESGGGLVQAGGSLRLSCAASGSIFSRYTMGWYRQAPGKERELVAAISYSGTRTYYADSVKGRFTISRDNAKNTVYLQMNSLKPEDTAVYYCAAIASPAGSNYWGQGTQVTVSS” reads “high polyreactivity”.

With “QVQLVESGGGLVQAGGSLRLSCAASGLTFSNYAMGWYRQAPGKERELVAAISASGGSTYYADSVKGRFTISRDNAKNTVYLQMNSLKPEDTAVYYCAAATTRPVYPANDDYWGQGTQVTVSS”, the “polyreactivity (PSR sort gate)” value is recorded as “low polyreactivity”.

(Values after the nanobody polyreactivity screen of Harvey et al. (2022).)
